Measured values taken from patent US9663561B2, “Methods of treatment of cancer using SRC-modulating peptides” (The University of Toledo, priority 2006, dated 2017).

How the values were obtained:
[1] = target: T1, Src (Sus scrofa, UniProt K7GM45); test: GST-CD3 pulldown of Src from LLC-PK1 cell lysates; format: binding, pig; conditions: 1 mg LLC-PK1 cell lysates
T1 construct: endogenous in cells; host or cells: LLC-PK1 (pig kidney)
Experimental: FIG. 4C. A Western blot showing that Src was pulled down by GST-CD3 of Na+/K+-ATPase (Na/K) and H+/K+-ATPase (H/K), but not SERCA from 1 mg LLC-PK1 cell lysates.
Cells were lysed in RIPA buffer containing 1% Nonidet P40, 0.25% sodium deoxycholate, 150 mM NaCl, 1 mM EDTA, 1 mM phenylmethylsulfonyl fluoride, 1 mM sodium orthovanadate, 1 mM NaF, 10 μg/ml aprotinin, 10 μg/mlleupeptin, and 50 mM Tris-HCl (pH 7.4). Cell lysates were cleared by centrifugation at 16,000×g for […], and the supernatants (1 mg) were either immunoprecipitated with anti-α1 antibody or incubated with different GST-fusion proteins. The complexes were then pulled down by either protein G agarose or glutathione beads (Ma et al., 2000; Haas et al., 2002) and analyzed by Western blot.

[2] = target: T2, purified Na+/K+-ATPase (Sus scrofa, UniProt P05024); test: In vitro GST pulldown binding assay with purified Na+/K+-ATPase; design: species or system pig; conditions: 2 μg purified Na+/K+-ATPase per assay
T2 construct: Na+/K+-ATPase was purified from pig kidney outer medulla using the Jorgensen method; from tissue; host or cells: pig kidney outer medulla
Experimental: The purified Na+/K+-ATPase was solubilized in 1% Triton X-100 PBS and centrifuged at 100,000×g for 30 min. The supernatant was collected for the binding assay. GST-fusion proteins (5 μg) were conjugated on glutathione beads and incubated with the solubilized Na+/K+-ATPase in 500 μl PBS in the presence of 0.5% Triton X-100 at room temperature for 30 min. The beads were washed with the same buffer for four times. The bound Na+/K+ATPase was resolved on 10% SDS-PAGE and detected by Western blot. Reciprocal binding assay using GST-Na+/K+-ATPase constructs (5 μg) and purified Src lacking of first 85 amino acids (200 ng) or His-tagged Src constructs (100 ng) was done similarly. To test if native Na+/K+-ATPase binds Src, the above experiments were repeated in the absence of Triton X-100. To make the Na+/K+-ATPase/Src complex, 2-5 μg of the purified Na+/K+ATPase was incubated with 4.5 U of Src (˜10 ng) in PBS in the absence of Triton X-100 at room temperature for 30 min. The complex was either used for the experiments directly as indicated or collected by centrifugation at 100,000×g for 30 min.

[3] = target: T3, Na+/K+-ATPase/Src complex (Sus scrofa, UniProt P05024); test: Src pY418 phosphorylation of the Na+/K+-ATPase/Src complex (Western blot); format: biochemical; conditions: 5 μg GST fusion preincubated with 2 μg Na+/K+-ATPase before adding Src (4.5 U)
T3 construct: Na+/K+-ATPase was purified from pig kidney outer medulla using the Jorgensen method; tissue Upstate Biotechnology (Src only); host or cells: pig kidney outer medulla (Na+/K+-ATPase)
Experimental: The Src kinase activity was assayed using a commercial kit (Haas et al., 2000). To determine how Na+/K+-ATPase affects Src kinase activity, the purified Src (4.5 U) was incubated with 5 μg of the purified Na+/K+-ATPase in the Src assay buffer for 30 min at room temperature. Afterward, both control Src or the Na+/K+-ATPase-bound Src were exposed to 10 μM ouabain and Src kinase activity was determined. In other experiments, the Src pY418 was measured by anti-pY418 antibody to indicate Src activation (Ma et al., 2000). To do so, the purified Src (4.5 U) was incubated with different amounts of the purified Na+/K+-ATPase or GST-Na+/K+ATPase constructs in phosphate-buffered saline (PBS) for 30 min at 37° C. Afterward, 2 mM ATP/Mg2+ was added. The reaction continued for 5 min at 37° C. and was stopped by addition of SDS sample buffer.
The purified Na+/K+-ATPase was solubilized in 1% Triton X-100 PBS and centrifuged at 100,000×g for 30 min. The supernatant was collected for the binding assay. GST-fusion proteins (5 μg) were conjugated on glutathione beads and incubated with the solubilized Na+/K+-ATPase in 500 μl PBS in the presence of 0.5% Triton X-100 at room temperature for 30 min. The beads were washed with the same buffer for four times. The bound Na+/K+ATPase was resolved on 10% SDS-PAGE and detected by Western blot. […]

Row | Molecule | pulldown of Src from LLC-PK1 cell lysates [1] | binding to the Na+/K+-ATPase [2] | Src pY418 in presence of Na+/K+-ATPase [3]
1 | GST-SERCA-CD3: GST fusion of the CD3 from rat heart SERCA 2a (protein) GTRRMAKKNAIVRSLPSVETLGCTSVICSDKTGTLTTNQMSVCRMFILDKVEGDTCSLNEFTITGSTYAPIGEVQKDDKPVKCHQYDGLVELATICALCNDSALDYNEAKGVYEKVGEATETALTCLVEKMNVFDTELKGLSKIERANACNSVIKQLMKKEFTLEFSRDRKSMSVYCTPNKPSRTSMSKMFVKGAPEGVIDRCTHIRVGSTKVPMTPGVKQKIMSVIREWGSGSDTLRCLALATHDNPLRREEMHLEDSANFIKYETNLTFVGCVGMLDPPRIEVASSVKLCRQAGIRVIMITGDNKGTAVAICRRIGIFGQDEDVTSKAFTGREFDELSPSAQRDACLNARCFARVEPSHKSKIVEFLQSFDEITAMTGDGVNDAPALKKSEIGIAMGSGTAVAKTASEMVLADDNFSTIVAAVEEGRAIYNNMKQFIRYLISSNV | not | – | –
2 | GST-kinase: GST fusion of Src kinase domain (protein, left off: a dimerising Fc or GST, GST fusion of Src kinase domain) QTQGLAKDAWEIPRESLRLEVKLGQGCFGEVWMGTWNGTTRVAIKTLKPGTMSPEAFLQEAQVMKKLRHEKLVQLYAVVSEEPIYIVTEYMSKGSLLDFLKGEMGKYLRLPQLVDMAAQIASGMAYVERMNYVHRDLRAANILVGENLVCKVADFGLARLIEDNEYTARQGAKFPIKWTAPEAALYGRFTIKSDVWSFGILLTELTTKGRVPYPGMVNREVLDQVERGYRMPCPPECPESLHDLMCQCWRKDPEERPTFEYLQAFLEDYFTSTEPQYQPGENL | – | Binding | significantly increased Src pY418
3 | GST-SH2: GST fusion of Src SH2 domain (protein, left off: a dimerising Fc or GST, GST fusion of Src SH2 domain) WYFGKITRRESERLLLNPENPRGTFLVRESETTKGAYCLSVSDFDNAKGLNVKHYKIRKLDSGGFYITSRTQFSSLQQLVAYYSKHADGLCHRLTNVC | – | Binding | –
